Test results published in the supplement of paper PMC10567573.
± gives the standard deviation.

Assay: protein stability index of a GFP-peptide fusion (GPS, HEK-293T) (PSI 1-6); higher = more stable
[1] = treatment: DMSO, c terminus: a fixed tail appended
[2] = treatment: MLN4924 1 uM, 8 h, c terminus: a fixed tail appended
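Note: 24-mer peptide tiles fused after GFP, lentivirally expressed, FACS-sorted into six equal bins by GFP/DsRed ratio, decoded by Illumina sequencing, PSI is the read-weighted mean bin number.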

VLGADGVCMTFMKQIAGGDVTAKN [INTS3]
protein stability index [1]: 3.51 ± 0.26
protein stability index [2]: 3.6 ± 0.42

AEEEEEEEEEVDLACTPTDVRDVD [CCND1]
protein stability index [1]: 5.53 ± 0.31
protein stability index [2]: 5.41 ± 0.34

KSIYYITGESKEQVANSAFVERVR [HSP90AB1]
protein stability index [1]: 3.11 ± 0.32

APTMLHNSSGDFSQAHSTLKLANH [TRAF3IP2]
protein stability index [1]: 4.02 ± 0.19
protein stability index [2]: 4.18 ± 0.34

LPWLSLRALKFRERDALEAVFRFW [DNAAF3]
protein stability index [1]: 2.46 ± 0.24
protein stability index [2]: 2.49 ± 0.28

GSRVLHVVQTLYPFSSVTEEELNF [NCK2]
protein stability index [1]: 2.31 ± 0.31
protein stability index [2]: 2.31 ± 0.22

SSRVPVGGGPEATLSISDVRTLSE [ZBTB22]
protein stability index [1]: 4.49 ± 0.11
protein stability index [2]: 4.57 ± 0.38

PNHLGGGAVVLGAESHASKDVAID [STX5]
protein stability index [1]: 5.1 ± 0.37
protein stability index [2]: 5.15 ± 0.17

RLVPGGQRPADVPEPGRAGYPAPR [HAGHL]
protein stability index [1]: 4.59 ± 0.13
protein stability index [2]: 4.68 ± 0.1

ICPICLEMFTKPVVILPCQHNLCR [TRIM55]
protein stability index [1]: 2.42 ± 0.17
protein stability index [2]: 2.96 ± 0.51

SGRFAGREWYYGNVTRHQAECALN [NCK2]
protein stability index [1]: 2.31 ± 0.16
protein stability index [2]: 2.47 ± 0.22

LRSKLCSLYENDCIFDKFECVWNG [PPP2R2B]
protein stability index [1]: 2.5 ± 0.34
protein stability index [2]: 2.42 ± 0.39

AEKNCMTFFEVSPLCNFNVIESFT [RAB40C]
protein stability index [1]: 2.3 ± 0.64
protein stability index [2]: 2.02 ± 0.24

DFHLSIHSDMAAIVKAMASPESGL [DVL3]
protein stability index [1]: 2.87 ± 0.21
protein stability index [2]: 2.85 ± 0.24

ANLKQVKKEDTEKERDLRDVGDWR [TNNI2]
protein stability index [1]: 5.33 ± 0.076
protein stability index [2]: 4.96 ± 0.24

KNHSTVTVEEAKAEKETELSLQKE [TRIM29]
protein stability index [1]: 5.57 ± 0.24
protein stability index [2]: 5.58 ± 0.23

KELCAMSEEQFRQRSPLGGDVLHA [SPDEF]
protein stability index [1]: 3.88 ± 0.27
protein stability index [2]: 3.87 ± 0.13

IELNPPEKMALDPYTELRKQPLRK [EFHC1]
protein stability index [1]: 4.08 ± 0.2
protein stability index [2]: 4.21 ± 0.33

AFDKKVLKFDAYFQEDVPMSTEEQ [EFHC1]
protein stability index [1]: 4.71 ± 0.17
protein stability index [2]: 4.73 ± 0.18

GIKSKEAEEYRLKEHYLTFEKSRY [PSD2]
protein stability index [1]: 3.82 ± 0.093
protein stability index [2]: 3.94 ± 0.31

EEGSANRRPEDQELESLSAIEAEL [CHGA]
protein stability index [1]: 5.59 ± 0.14
protein stability index [2]: 5.45 ± 0.095

MGLYDGMEHLIYGEPRKLLTQDWV [MAGEA10]
protein stability index [1]: 2.25 ± 0.31
protein stability index [2]: 2.28 ± 0.51

GRWLRSTRFSGSLDRLRETRVAD [PCDHGC5]
protein stability index (treatment: DMSO, c terminus: native): 2.62 ± 0.48
protein stability index (treatment: MLN4924 1 uM, 8 h, c terminus: native): 2.84 ± 0.14

GVDSMAEEGTSDSNTGSESNSATV [SMARCE1]
protein stability index [1]: 5.41 ± 0.14
protein stability index [2]: 5.57 ± 0.41

VIESFTELSRIVLMRHGMEKIWRP [RAB40C]
protein stability index [1]: 3.11 ± 1
protein stability index [2]: 2.6 ± 0.59

ALEFQPQLVLVAAGFDALQGDPKG [HDAC6]
protein stability index [1]: 2.86 ± 0.28
protein stability index [2]: 3.11 ± 0.47

HVRQGVFSSLNHIVEKRVLAHLAP [INTS3]
protein stability index [1]: 2.32 ± 0.21
protein stability index [2]: 2.41 ± 0.12

MADSGLREPQEDSQKDLENDPSVN [TOR1AIP2]
protein stability index [1]: 5.65 ± 0.19
protein stability index [2]: 5.57 ± 0.21

WQAKREEEEEEEEEAEAGEEAVPE [CHGA]
protein stability index [1]: 5.6 ± 0.47
protein stability index [2]: 5.7 ± 0.22

AGRIDREELCAQSARCVVSFNILV [PCDHGA10]
protein stability index [1]: 2.45 ± 1.1
protein stability index [2]: 2.37 ± 0.61

SEDEEEYESGYAFLPDLLIFQMVI [SMG5]
protein stability index [1]: 2.76 ± 0.62
protein stability index [2]: 2.59 ± 0.53

MLYEKQKQQNVAHCMLVSNRVSWW [ZBED1]
protein stability index [1]: 2.08 ± 0.17
protein stability index [2]: 2.31 ± 0.2

VEALQLSARWLEVLRTYLELVLCV [FBXO33]
protein stability index [1]: 2.58 ± 0.35
protein stability index [2]: 2.46 ± 0.73

LASARIIEQDAVVPSEWLSSVYKQ [GMCL1]
protein stability index [1]: 3.31 ± 0.17
protein stability index [2]: 3.19 ± 0.24

APKVNAVDTLNVKDIAPEKQLLNS [DLC1]
protein stability index [1]: 4.88 ± 0.2
protein stability index [2]: 4.82 ± 0.35

NQAGFTLHSAIYAARPDVKCVVHI [ADD1]
protein stability index [1]: 3.1 ± 0.42
protein stability index [2]: 3.15 ± 0.62
